Tests used:
Experiment in all cases: dot blot (nitrocellulose filter binding)
Settings in all cases: 5 mM Mg2+; Dot blot/aptamer blot: 20 mM Tris-HCl, 100 mM NaCl, 5 mM MgCl2, 0.1% BSA (pH not given), 50 nM aptamer in dot blot (membranes equilibrated at 4 C), blots 1 h …
[1] = target: GST (glutathione S-transferase tag) (UniProt P08515)
[2] = tested on: MBP (maltose-binding protein tag)
[3] = target: His-TrxA (His-tagged thioredoxin 1) (UniProt P0AA25)

In the case of “ATACGACTCACTATTAGGGACAAAGCTGACAACCCTTTCATAATCTAACTACATTTATGTGCTAGACTACTGACTAC [G1]”, the Kd [1] is reported as 59 nM.

With “ATACGACTCACTATTAGGGACCACATAAACATGCATCGCTCAATAACGGGATATTGTTGTGCTAGACTACTGACTACAA [M1]” the Kd [2] was 86 nM.

For “ATACGACTCACTATTAGGGATGTCCACCATATAGATCGATTTAAGTCCCTCGTTATTAATGCTAGACTACTGACTACAA [H1]”, the Kd [3] was 173 nM.

From paper PMC7658645
